Results reported in PMC4324353.

Molecular target: latrunculin B bound actin (A. castellani actin monomer) (A. castellani)
Assay: fluorescence polarisation

Kd: 90 nM
Substance: Spir second WH2 domain (SB) (domain or fragment)
